Starred links: 1 amine or outer side, 2 acyl side, 3 side chain; linkers in the order of their positions; H or OH if unused. Non-standard residues stand in square brackets, D forms with d. Groups on a side chain read outwards from the residue. No end group written: not given here. *: point of attachment. C20 diacid = O=C(O)CCCCCCCCCCCCCCCCCCC(=O)*; C18 diacid = O=C(O)CCCCCCCCCCCCCCCCC(=O)*; γGlu = O=C(O)[C@H](CCC(=O)[*:2])N[*:1]; αMeF = C[C@](N)(Cc1ccccc1)C(=O)O; AEEA = NCCOCCOCC(=O)O; Aib = CC(C)(N)C(=O)O
Columns and labels:
[1] = molecular target: human glucagon receptor (hGCGR) (human, UniProt P47871 26-477); test: cell-based or functional assay
[2] = molecular target: human GLP-1 receptor (hGLP-1R) (human, UniProt P43220 24-463); test: cell-based or functional assay

Sequence of human glucagon receptor (hGCGR) (P47871 26-477): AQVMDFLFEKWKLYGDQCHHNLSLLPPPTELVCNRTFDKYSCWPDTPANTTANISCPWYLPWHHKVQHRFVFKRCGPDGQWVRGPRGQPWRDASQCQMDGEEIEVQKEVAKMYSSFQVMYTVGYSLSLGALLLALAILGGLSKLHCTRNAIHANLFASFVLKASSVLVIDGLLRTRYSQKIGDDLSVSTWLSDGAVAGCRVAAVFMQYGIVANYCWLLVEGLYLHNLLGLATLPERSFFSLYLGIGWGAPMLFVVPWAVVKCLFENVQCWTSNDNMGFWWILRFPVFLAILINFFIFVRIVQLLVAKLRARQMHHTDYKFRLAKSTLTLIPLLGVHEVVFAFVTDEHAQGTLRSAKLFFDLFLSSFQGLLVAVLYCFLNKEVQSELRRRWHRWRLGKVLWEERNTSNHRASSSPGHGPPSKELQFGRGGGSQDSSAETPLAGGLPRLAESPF

Binder | hGluc-R EC50 (pM); cAMP production [1] [pM] | hGLP-1R EC50 (pM); cAMP production [2] [pM]
HXHGSXTSDVSKXLDSQAAQDFVXWIANT (Aib at 2; αMePhe at 6 and 13; K((PEG)2-(PEG)2-γE-γE-C20diacid)24; C-terminal amide) [Peptide 355] | 478 | 424
H[Aib]HGS[αMeF]TSDVSK[αMeF]LDSR[Aib]AQDFVK([AEEA-AEEA-γGlu-γGlu-C18 diacid])SIANTGG-NH2 (N-terminus assumed; SMILES CC[C@H](C)[C@H](NC(=O)[C@H](CO)NC(=O)[C@H](CCCCNC(=O)COCCOCCNC(=O)COCCOCCNC(=O)CC[C@H](NC(=O)CC[C@H](NC(=O)CCCCCCCCCCCCCCCCC(=O)O)C(=O)O)C(=O)O)NC(=O)[C@@H](NC(=O)[C@H](Cc1ccccc1)NC(=O)[C@H](CC(=O)O)NC(=O)[C@H](CCC(N)=O)NC(=O)[C@H](C)NC(=O)C(C)(C)NC(=O)[C@H](CCCNC(=N)N)NC(=O)[C@H](CO)NC(=O)[C@H](CC(=O)O)NC(=O)[C@H](CC(C)C)NC(=O)[C@](C)(Cc1ccccc1)NC(=O)[C@H](CCCCN)NC(=O)[C@H](CO)NC(=O)[C@@H](NC(=O)[C@H](CC(=O)O)NC(=O)[C@H](CO)NC(=O)[C@@H](NC(=O)[C@](C)(Cc1ccccc1)NC(=O)[C@H](CO)NC(=O)CNC(=O)[C@H](Cc1c[nH]cn1)NC(=O)C(C)(C)NC(=O)[C@@H](N)Cc1c[nH]cn1)[C@@H](C)O)C(C)C)C(C)C)C(=O)N[C@@H](C)C(=O)N[C@@H](CC(N)=O)C(=O)N[C@H](C(=O)NCC(=O)NCC(N)=O)[C@@H](C)O) [Peptide 382] | 329 | 56
HXIGSXTSDVSKXLDSQAAQDFVXWIANT (Aib at 2; αMePhe at 6 and 13; K(O2Oc-O2Oc-γE-C18diacid)24; C-terminal amide) [Peptide 359] | 5050 | 46.1
HXHGSXTSDVSKXLDSQAAQDFVXWIANT (Aib at 2; αMePhe at 6 and 13; K(γE-γE-(PEG)2-γE-γE-C18diacid)24 (printed YE-YE-(PEG)2-γE-γE-); C-terminal amide) [Peptide 353] | 163 | 311
H[Aib]HGS[αMeF]TSDVSK[αMeF]LDSQAAQD[αMeF]VK([AEEA-AEEA-γGlu-γGlu-C20 diacid])[Aib]IANT-NH2 [Peptide 384] | 1240 | 797
H[Aib]HGS[αMeF]TSDVSK[αMeF]LDSRAAQDFVK([AEEA-AEEA-γGlu-C20 diacid])WIANT-NH2 (not fully specified) [Peptide 367] | 72.4 | 139
HXHGTFTSDVSKXLDSQAAQDFVXWIANT (Aib at 2; αMePhe at 13; K(γE-C20diacid)24; C-terminal amide) [Peptide 347] | 597 | 4970
HXHGSXTSDVSKXLDSQAAQDFVXWIANT (Aib at 2; αMePhe at 6 and 13; K(O2Oc-O2Oc-γE-C20diacid)24; C-terminal amide) [Peptide 356] | 316 | 304
H[Aib]HGS[αMeF]TSDVSK[αMeF]LDSR[Aib]AQDFVK([AEEA-AEEA-γGlu-C20 diacid])WIANT-NH2 (N-terminus assumed; SMILES CC[C@H](C)[C@H](NC(=O)[C@H](Cc1c[nH]c2ccccc12)NC(=O)[C@H](CCCCNC(=O)COCCOCCNC(=O)COCCOCCNC(=O)CC[C@H](NC(=O)CCCCCCCCCCCCCCCCCCC(=O)O)C(=O)O)NC(=O)[C@@H](NC(=O)[C@H](Cc1ccccc1)NC(=O)[C@H](CC(=O)O)NC(=O)[C@H](CCC(N)=O)NC(=O)[C@H](C)NC(=O)C(C)(C)NC(=O)[C@H](CCCNC(=N)N)NC(=O)[C@H](CO)NC(=O)[C@H](CC(=O)O)NC(=O)[C@H](CC(C)C)NC(=O)[C@](C)(Cc1ccccc1)NC(=O)[C@H](CCCCN)NC(=O)[C@H](CO)NC(=O)[C@@H](NC(=O)[C@H](CC(=O)O)NC(=O)[C@H](CO)NC(=O)[C@@H](NC(=O)[C@](C)(Cc1ccccc1)NC(=O)[C@H](CO)NC(=O)CNC(=O)[C@H](Cc1c[nH]cn1)NC(=O)C(C)(C)NC(=O)[C@@H](N)Cc1c[nH]cn1)[C@@H](C)O)C(C)C)C(C)C)C(=O)N[C@@H](C)C(=O)N[C@@H](CC(N)=O)C(=O)N[C@H](C(N)=O)[C@@H](C)O) [Peptide 368] | 290 | 186
H[Aib]HGS[αMeF]TSDVSK[αMeF]LDSRAAQDFVK([AEEA-AEEA-γGlu-γGlu-C18 diacid])WIANT-NH2 (N-terminus assumed; SMILES CC[C@H](C)[C@H](NC(=O)[C@H](Cc1c[nH]c2ccccc12)NC(=O)[C@H](CCCCNC(=O)COCCOCCNC(=O)COCCOCCNC(=O)CC[C@H](NC(=O)CC[C@H](NC(=O)CCCCCCCCCCCCCCCCC(=O)O)C(=O)O)C(=O)O)NC(=O)[C@@H](NC(=O)[C@H](Cc1ccccc1)NC(=O)[C@H](CC(=O)O)NC(=O)[C@H](CCC(N)=O)NC(=O)[C@H](C)NC(=O)[C@H](C)NC(=O)[C@H](CCCNC(=N)N)NC(=O)[C@H](CO)NC(=O)[C@H](CC(=O)O)NC(=O)[C@H](CC(C)C)NC(=O)[C@](C)(Cc1ccccc1)NC(=O)[C@H](CCCCN)NC(=O)[C@H](CO)NC(=O)[C@@H](NC(=O)[C@H](CC(=O)O)NC(=O)[C@H](CO)NC(=O)[C@@H](NC(=O)[C@](C)(Cc1ccccc1)NC(=O)[C@H](CO)NC(=O)CNC(=O)[C@H](Cc1c[nH]cn1)NC(=O)C(C)(C)NC(=O)[C@@H](N)Cc1c[nH]cn1)[C@@H](C)O)C(C)C)C(C)C)C(=O)N[C@@H](C)C(=O)N[C@@H](CC(N)=O)C(=O)N[C@H](C(N)=O)[C@@H](C)O) [Peptide 362] | 42.8 | 
HXHGSXTSDVSKXLDSQAAQDFVXWIANT (Aib at 2; αMePhe at 6 and 13; K(O2Oc-O2Oc-γE-C18diacid)24; C-terminal amide) [Peptide 358] |  | 74.9
HXHGTFTSDVSKXLDSQAAQDFVXWIANT (Aib at 2; αMePhe at 6 and 13; K(O2Oc-O2Oc-γE-C18diacid)24; C-terminal amide) [Peptide 348] | 4110 | 70.1

More lines, now with the values ahead:

hGluc-R EC50 (pM); cAMP production [1] [pM] | hGLP-1R EC50 (pM); cAMP production [2] [pM] | Binder
85.7 | 71.8 | H[Aib]HGS[αMeF]TSDVSK[αMeF]LDSRAAQD[αMeF]VK([AEEA-AEEA-γGlu-C18 diacid])SIANT-NH2 (not fully specified) [Peptide 379]
550 | 917 | HXHGSXTSDVSKXLDSQAAQDFVXWIANT (Aib at 2; αMePhe at 6 and 13; K(γE-γE-(PEG)2-γE-γE-C20diacid)24; C-terminal amide) [Peptide 357]
23.6 | 35.7 | H[Aib]IGS[αMeF]TSDVSK[αMeF]LDSRAAQDFVK([AEEA-AEEA-γGlu-C18 diacid])WIANT-NH2 (N-terminus assumed; SMILES CC[C@H](C)[C@H](NC(=O)[C@H](Cc1c[nH]c2ccccc12)NC(=O)[C@H](CCCCNC(=O)COCCOCCNC(=O)COCCOCCNC(=O)CC[C@H](NC(=O)CCCCCCCCCCCCCCCCC(=O)O)C(=O)O)NC(=O)[C@@H](NC(=O)[C@H](Cc1ccccc1)NC(=O)[C@H](CC(=O)O)NC(=O)[C@H](CCC(N)=O)NC(=O)[C@H](C)NC(=O)[C@H](C)NC(=O)[C@H](CCCNC(=N)N)NC(=O)[C@H](CO)NC(=O)[C@H](CC(=O)O)NC(=O)[C@H](CC(C)C)NC(=O)[C@](C)(Cc1ccccc1)NC(=O)[C@H](CCCCN)NC(=O)[C@H](CO)NC(=O)[C@@H](NC(=O)[C@H](CC(=O)O)NC(=O)[C@H](CO)NC(=O)[C@@H](NC(=O)[C@](C)(Cc1ccccc1)NC(=O)[C@H](CO)NC(=O)CNC(=O)[C@@H](NC(=O)C(C)(C)NC(=O)[C@@H](N)Cc1c[nH]cn1)[C@@H](C)CC)[C@@H](C)O)C(C)C)C(C)C)C(=O)N[C@@H](C)C(=O)N[C@@H](CC(N)=O)C(=O)N[C@H](C(N)=O)[C@@H](C)O) [Peptide 361]
5640 | 108 | H[Aib]IGS[αMeF]TSDVSK[αMeF]LDSRAAQDFVK([AEEA-AEEA-γGlu-C20 diacid])WIANT-NH2 (N-terminus assumed; SMILES CC[C@H](C)[C@H](NC(=O)[C@H](Cc1c[nH]c2ccccc12)NC(=O)[C@H](CCCCNC(=O)COCCOCCNC(=O)COCCOCCNC(=O)CC[C@H](NC(=O)CCCCCCCCCCCCCCCCCCC(=O)O)C(=O)O)NC(=O)[C@@H](NC(=O)[C@H](Cc1ccccc1)NC(=O)[C@H](CC(=O)O)NC(=O)[C@H](CCC(N)=O)NC(=O)[C@H](C)NC(=O)[C@H](C)NC(=O)[C@H](CCCNC(=N)N)NC(=O)[C@H](CO)NC(=O)[C@H](CC(=O)O)NC(=O)[C@H](CC(C)C)NC(=O)[C@](C)(Cc1ccccc1)NC(=O)[C@H](CCCCN)NC(=O)[C@H](CO)NC(=O)[C@@H](NC(=O)[C@H](CC(=O)O)NC(=O)[C@H](CO)NC(=O)[C@@H](NC(=O)[C@](C)(Cc1ccccc1)NC(=O)[C@H](CO)NC(=O)CNC(=O)[C@@H](NC(=O)C(C)(C)NC(=O)[C@@H](N)Cc1c[nH]cn1)[C@@H](C)CC)[C@@H](C)O)C(C)C)C(C)C)C(=O)N[C@@H](C)C(=O)N[C@@H](CC(N)=O)C(=O)N[C@H](C(N)=O)[C@@H](C)O) [Peptide 360]
83.7 | 121 | HXQGSXTSDVSKXLDSQAAQDFVXWIANT (Aib at 2; αMePhe at 6 and 13; K(O2Oc-O2Oc-γE-C18diacid)24; C-terminal amide) [Peptide 349]
902 | 1110 | HXHGSXTSDVSKXLDSQAAQDFVXWIANT (Aib at 2; αMePhe at 6 and 13; K(γE-C20diacid)24; C-terminal amide) [Peptide 354]

From US20230357348A1 (AstraZeneca / MedImmune, published 2023)
